The text below walks through data of article doi:10.1101/2023.11.25.568662.

The target of assay [1] is 16 unique Boskar4 variants displayed on E. coli. Description: flow cytometry on cells.
Assay [2] concerns the target bv2 displayed on E. coli (Intimin fusion). The assay is described as follows: flow cytometry on cells. A general note: In flow cytometry, cells or beads pass a laser one at a time.

B1: biotinylated recombinant human G-CSFR (BioGCSFR) (receptor)
chain: ECGHISVSAPIVHLGDPITASCIIKQNCSHLDPEPQILWRLGAELQPGGRQQRLSDGTQESIITLPHLNHTQAFLSCCLNWGNSLQILDQVELRAGYPPAIPHNLSCLMNLTTSSLICQWEPGPETHLPTSFTLKSFKSRGNCQTQGDSILDCVPKDGQSHCCIPRKHLLLYQNMGIWVQAENALGTSMSPQLCLDPMDVVKLEPPMLRTMDPSPEAAPPQAGCLQLCWEPWQPGLHINQKCELRHKPQRGEASWALVGPLPLEALQYELCGLLPATAYTLQIRCIRWPLPGHWSDWSPSLELRTTERAPTVRLDTWWRQRQLDPRTVQLFWKPVPLEEDSGRIQGYVVSWRPSGQAGAILPLCNTTELSCTFHLPSEAQEVALVAYNSAGTSRPTPVVFSESRGPALTRLHAMARDPHSLWVGWEPPNPWPQGYVIEWGLGPPSASNSNKTWRMEQNGRATGFLLKENIRPFQLYEIIVTPLYQDTMGPSQHVYAYSQEMAPSHAPELHLKHIGKTWAQLEWVPEPPELGKSPLTHYTIFWTNAQNQSFSAILNASSRGFVLHGLEPASLYHIHLMAASQAGATNSTVLTLMTLTPEGSELH
modifications: biotin (Biotin-NHS, 1:20 molar ratio G-CSFR:Biotin-NHS)
On to B1, for which the fold increase of expression-normalized binding over Boskar4 worked out at 3 fold in assay [1] and 37 fold in assay [2].
